# Like-named read-outs stand apart in the source and are kept apart here.
# Tests used:
# Experiment in all cases: cell-based or functional assay
# [1] = target: TSHR with Tyr185 mutated to Ala (human) (UniProt P16473)
# [2] = target: TSHR with Lys183 mutated to Ala expressed in CHO cells (human) (UniProt P16473)
# [3] = target: TSHR with Arg80 mutated to Ala expressed in CHO cells (human) (UniProt P16473)
# [4] = target: TSHR with Lys129 mutated to Ala, expressed in CHO cells (human) (UniProt P16473)
# [5] = target: wild type TSHR (human) (UniProt P16473)
# [6] = target: TSHR with Arg109 mutated to Ala, expressed in CHO cells (human) (UniProt P16473)
# [7] = target: TSHR with Asp203 mutated to Ala expressed in CHO cells (human) (UniProt P16473)
# [8] = target: wild type TSHR expressed in CHO cells (human) (UniProt P16473)
# [9] = target: TSHR with Asp151 mutated to Ala, expressed in CHO cells (human) (UniProt P16473)
# [10] = target: wild type human TSHR (full length) expressed in CHO cells (human) (UniProt P16473)
substance,measurement,setting,value
5B3 IgG (antibody),"% inhibition of TSH stimulation, 5B3 10 µg/mL, mutated TSHR",[1],10%
same,"% inhibition of TSH stimulation, 5B3 100 µg/mL, mutated TSHR",[1],0%
same,"Cyclic AMP produced (pmol/mL), 5B3 10 µg/mL + TSH 3 ng/mL, mutated TSHR",[1],47 pmol/mL
same,"Cyclic AMP produced (pmol/mL), 5B3 100 µg/mL + TSH 3 ng/mL, mutated TSHR",[1],56.1 pmol/mL
same,Mutated/wild type (%) of cyclic AMP produced; 5B3 10 µg/mL + TSH 3 ng/mL,[1],37%
same,Mutated/wild type (%) of cyclic AMP produced; 5B3 100 µg/mL + TSH 3 ng/mL,[1],58%
same,"% inhibition of TSH stimulation, Exp 1: 5B3 10 µg/mL",[2],24%
same,"% inhibition of TSH stimulation, Exp 1: 5B3 100 µg/mL",[2],17%
same,"% inhibition of TSH stimulation, Exp 2: 5B3 10 µg/mL",[2],9%
same,"% inhibition of TSH stimulation, Exp 2: 5B3 100 µg/mL",[2],9%
same,"Cyclic AMP, Mutated/wild type (%), Exp 1: 5B3 10 µg/mL + TSH 3 ng/mL",[2],93%
same,"Cyclic AMP, Mutated/wild type (%), Exp 1: 5B3 100 µg/mL + TSH 3 ng/mL",[2],91%
same,"Cyclic AMP, Mutated/wild type (%), Exp 2: 5B3 10 µg/mL + TSH 3 ng/mL",[2],104%
same,"Cyclic AMP, Mutated/wild type (%), Exp 2: 5B3 100 µg/mL + TSH 3 ng/mL",[2],111%
same,% inhibition of TSH stimulation; 5B3 10 µg/mL,[3],0.3%
same,% inhibition of TSH stimulation; 5B3 100 µg/mL,[3],4%
same,Cyclic AMP produced; 5B3 10 µg/mL + TSH 3 ng/mL,[3],105 pmol/mL
same,Cyclic AMP produced; 5B3 100 µg/mL + TSH 3 ng/mL,[3],101 pmol/mL
same,Mutated/wild type (%) of cyclic AMP produced; 5B3 10 µg/mL + TSH 3 ng/mL,[3],102%
same,Mutated/wild type (%) of cyclic AMP produced; 5B3 100 µg/mL + TSH 3 ng/mL,[3],107%
same,% inhibition of TSH stimulation; 5B3 10 µg/mL,[4],0%
same,% inhibition of TSH stimulation; 5B3 100 µg/mL,[4],13%
same,Cyclic AMP produced; 5B3 10 µg/mL + TSH 3 ng/mL,[4],50.5 pmol/mL
same,Cyclic AMP produced; 5B3 100 µg/mL + TSH 3 ng/mL,[4],42.6 pmol/mL
same,Mutated/wild type (%) of cyclic AMP produced; 5B3 10 µg/mL + TSH 3 ng/mL,[4],94%
same,Mutated/wild type (%) of cyclic AMP produced; 5B3 100 µg/mL + TSH 3 ng/mL,[4],81%
same,"% inhibition of TSH stimulation, 5B3 10 µg/mL, wild type TSHR",[5],0%
same,"% inhibition of TSH stimulation, 5B3 100 µg/mL, wild type TSHR",[5],3%
same,"Cyclic AMP produced (pmol/mL), 5B3 10 µg/mL + TSH 3 ng/mL, wild type TSHR",[5],126 pmol/mL
same,"Cyclic AMP produced (pmol/mL), 5B3 100 µg/mL + TSH 3 ng/mL, wild type TSHR",[5],97.3 pmol/mL
same,% inhibition of TSH stimulation; 5B3 10 µg/mL; Experiment 1,[6],0%
same,% inhibition of TSH stimulation; 5B3 10 µg/mL; Experiment 2,[6],0%
same,% inhibition of TSH stimulation; 5B3 100 µg/mL; Experiment 1,[6],0%
same,% inhibition of TSH stimulation; 5B3 100 µg/mL; Experiment 2,[6],0%
same,Cyclic AMP produced; 5B3 10 µg/mL + TSH 3 ng/mL; Experiment 1,[6],34.4 pmol/mL
same,Cyclic AMP produced; 5B3 10 µg/mL + TSH 3 ng/mL; Experiment 2,[6],60.6 pmol/mL
same,Cyclic AMP produced; 5B3 100 µg/mL + TSH 3 ng/mL; Experiment 1,[6],34.5 pmol/mL
same,Cyclic AMP produced; 5B3 100 µg/mL + TSH 3 ng/mL; Experiment 2,[6],56.6 pmol/mL
same,Mutated/wild type (%) of cyclic AMP produced; 5B3 10 µg/mL + TSH 3 ng/mL; Experiment 1,[6],52%
same,Mutated/wild type (%) of cyclic AMP produced; 5B3 10 µg/mL + TSH 3 ng/mL; Experiment 2,[6],88%
same,Mutated/wild type (%) of cyclic AMP produced; 5B3 100 µg/mL + TSH 3 ng/mL; Experiment 1,[6],50%
same,Mutated/wild type (%) of cyclic AMP produced; 5B3 100 µg/mL + TSH 3 ng/mL; Experiment 2,[6],85%
same,% inhibition of TSH stimulation: 5B3 10 µg/mL,[7],0%
same,% inhibition of TSH stimulation: 5B3 100 µg/mL,[7],0%
same,"Cyclic AMP, Mutated/wild type (%): 5B3 10 µg/mL + TSH 3 ng/mL",[7],89%
same,"Cyclic AMP, Mutated/wild type (%): 5B3 100 µg/mL + TSH 3 ng/mL",[7],84%
same,"% inhibition of TSH stimulation (stimulator given as M22), wild type TSHR; 5B3 10 µg/mL",[8],0%
same,"% inhibition of TSH stimulation (stimulator given as M22), wild type TSHR; 5B3 100 µg/mL",[8],0%
same,"% inhibition of TSH stimulation, wild type TSHR; 5B3 10 µg/mL",[8],0%
same,"% inhibition of TSH stimulation, wild type TSHR; 5B3 100 µg/mL",[8],0%
same,% inhibition of TSH stimulation; 5B3 10 µg/mL,[8],0%
same,% inhibition of TSH stimulation; 5B3 10 µg/mL; Experiment 1,[8],0%
same,% inhibition of TSH stimulation; 5B3 10 µg/mL; Experiment 2,[8],0%
same,% inhibition of TSH stimulation; 5B3 100 µg/mL,[8],0%
same,% inhibition of TSH stimulation; 5B3 100 µg/mL; Experiment 1,[8],0%
same,% inhibition of TSH stimulation; 5B3 100 µg/mL; Experiment 2,[8],8%
same,Cyclic AMP produced; 5B3 10 µg/mL + TSH 3 ng/mL,[8],103 pmol/mL
same,Cyclic AMP produced; 5B3 10 µg/mL + TSH 3 ng/mL; Experiment 1,[8],82.8 pmol/mL
same,Cyclic AMP produced; 5B3 10 µg/mL + TSH 3 ng/mL; Experiment 2,[8],106 pmol/mL
same,Cyclic AMP produced; 5B3 100 µg/mL + TSH 3 ng/mL,[8],94.8 pmol/mL
same,Cyclic AMP produced; 5B3 100 µg/mL + TSH 3 ng/mL; Experiment 1,[8],80.7 pmol/mL
same,Cyclic AMP produced; 5B3 100 µg/mL + TSH 3 ng/mL; Experiment 2,[8],90.4 pmol/mL
same,Experiment 1: % inhibition of TSH stimulation; 5B3 10 µg/mL,[8],0%
same,Experiment 1: % inhibition of TSH stimulation; 5B3 100 µg/mL,[8],0%
same,Experiment 1; % inhibition of TSH stimulation; 5B3 10 µg/mL,[8],0%
same,Experiment 1; % inhibition of TSH stimulation; 5B3 100 µg/mL,[8],7%
same,Experiment 1; cyclic AMP produced; 5B3 10 µg/mL + TSH 3 ng/mL,[8],79.6 pmol/mL
same,Experiment 1; cyclic AMP produced; 5B3 100 µg/mL + TSH 3 ng/mL,[8],72.7 pmol/mL
same,Experiment 2: % inhibition of TSH stimulation; 5B3 10 µg/mL,[8],0%
same,Experiment 2: % inhibition of TSH stimulation; 5B3 100 µg/mL,[8],0%
same,Experiment 2; % inhibition of TSH stimulation; 5B3 10 µg/mL,[8],0%
same,Experiment 2; % inhibition of TSH stimulation; 5B3 100 µg/mL,[8],0%
same,Experiment 2; cyclic AMP produced; 5B3 10 µg/mL + TSH 3 ng/mL,[8],107 pmol/mL
same,Experiment 2; cyclic AMP produced; 5B3 100 µg/mL + TSH 3 ng/mL,[8],101 pmol/mL
same,% inhibition of TSH stimulation; 5B3 10 µg/mL,[8]; record 2,0%
same,% inhibition of TSH stimulation; 5B3 100 µg/mL,[8]; record 2,0%
same,Cyclic AMP produced; 5B3 10 µg/mL + TSH 3 ng/mL,[8]; record 2,83.6 pmol/mL
same,Cyclic AMP produced; 5B3 100 µg/mL + TSH 3 ng/mL,[8]; record 2,88 pmol/mL
same,"% inhibition of TSH stimulation, mutated TSHR; 5B3 10 µg/mL",[9],11%
same,"% inhibition of TSH stimulation, mutated TSHR; 5B3 100 µg/mL",[9],0%
same,Mutated/wild type (%) of cyclic AMP produced; test sample: 5B3 10 µg/mL + TSH (3 ng/mL),[9],53%
same,Mutated/wild type (%) of cyclic AMP produced; test sample: 5B3 100 µg/mL + TSH (3 ng/mL),[9],57%
same,"% inhibition of TSH stimulation, 5B3 10 µg/mL, wild type TSHR",[10],0%
same,"% inhibition of TSH stimulation, 5B3 100 µg/mL, wild type TSHR",[10],0%
same,"Cyclic AMP produced (pmol/mL), 5B3 10 µg/mL + TSH 3 ng/mL, wild type TSHR",[10],106 pmol/mL
same,"Cyclic AMP produced (pmol/mL), 5B3 100 µg/mL + TSH 3 ng/mL, wild type TSHR",[10],104 pmol/mL

# Reference: patent US20110300138A1 (published 2011)
